One assay addresses c-Myc (Homo sapiens, UniProt P01106). Nature of the assay: LUC experiment in tobacco leaves with c-Myc. In kind it is binding. Further details: with the full length of c-Myc and NMYC, respectively; expressed in transfected cells; host or cells: yeast Y2HGold. The text has this: Using the method of LUC experiment, c-Myc (NCBI accession number: NM_002467.6) was subcloned to pCAMBIA NLuc vector (Chen, H., et al. “Firefly Luciferase Complementation Imaging Assay for Protein-Protein Interactions in Plants.” Plant Physiology 146.2(2008):368-376.) between the KpnI and SalI cleavage sites, and GhJAZ1 (SEQ ID No. 39) was subcloned to pCAMBIA-CLuc vector (Chen, H., et al. “Firefly Luciferase Complementation Imaging Assay for Protein-Protein Interactions in Plants.” Plant Physiology 146.2(2008):368-376.) between the KpnI and SalI cleavage sites. The constructed recombinant plasmids verified to be positive by sequencing were transformed into Agrobacterium GV3101 (pSoup-p19) (Shanghai Weidi biology technology co., Ltd, Cat. No.: AC1003), which were co-transfected into tobacco leaves. 2-3 days after injection, the infected leaves coated with the fluorescent substrate were placed in a dark chamber of the instrument for at least 6 min before taking images to quench fluorescence, followed by observation on the Nightowl-II LB983 instrument, using IndigoBasic software under the luciferase-5 min setting conditions. Cultivation was performed after co-infection. If there is interaction, LUC luciferase is expressed, and luminescence is detected after substrate application. As shown in F in FIG. 6, GhJAZ1 interacts with c-Myc.

The test system of the next assay is GhNINJA. Nature of the assay: Luciferase experiment in tobacco leaves with GhNINJA. The class given is binding, cotton. The following applies: no fluorescence on the control. The text has this: Method of the luciferase experiment: GhJAZ1 (corresponding encoding gene sequence set forth in SEQ ID No. 39) was subcloned into pCAMBIA-CLuc vector (Chen, H., et al. “Firefly Luciferase Complementation Imaging Assay for Protein-Protein Interactions in Plants.” Plant Physiology 146.2(2008):368-376.) between KpnI and SalI cleavage sites, and the transcription factors such as GhMYC2 (corresponding encoding gene sequence set forth in SEQ ID No. 72), GhNINJA (corresponding encoding gene sequence set forth in SEQ ID No. 74), and GhCOI1 (corresponding encoding gene sequence set forth in SEQ ID No. 80) were subcloned into pCAMBIA-NLuc (Chen, H., et al. “Firefly Luciferase Complementation Imaging Assay for Protein-Protein Interactions in Plants.” Plant Physiology 146.2(2008):368-376.) between KpnI and SalI cleavage sites, respectively. […] Luciferase substrates were applied at the infected leaves before taking images and placed in a dark room for at least 6 min to quench fluorescence, followed by observation on the Nightowl-II LB983 instrument, using IndigoBasic software under the luciferase-5 min setting conditions.
GhNINJA, sequence (as listed by the source): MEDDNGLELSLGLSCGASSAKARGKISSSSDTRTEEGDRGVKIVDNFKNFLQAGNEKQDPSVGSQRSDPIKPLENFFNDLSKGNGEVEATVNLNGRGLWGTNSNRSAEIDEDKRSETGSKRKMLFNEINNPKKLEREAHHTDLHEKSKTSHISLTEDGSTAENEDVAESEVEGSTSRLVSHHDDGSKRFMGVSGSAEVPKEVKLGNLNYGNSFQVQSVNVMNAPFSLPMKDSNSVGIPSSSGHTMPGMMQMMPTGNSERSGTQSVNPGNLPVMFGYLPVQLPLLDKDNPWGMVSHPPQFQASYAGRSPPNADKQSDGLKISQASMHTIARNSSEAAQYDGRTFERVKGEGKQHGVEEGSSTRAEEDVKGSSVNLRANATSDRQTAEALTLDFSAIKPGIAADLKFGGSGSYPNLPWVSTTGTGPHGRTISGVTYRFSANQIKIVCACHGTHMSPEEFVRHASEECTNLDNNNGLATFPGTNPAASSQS

Assay [1] has as its system downstream genes of c-Myc in normal cell MCF10A. Nature of the assay: RT-PCR of c-Myc downstream genes, MCF10A. The class given is cell-based, human. The method, then:
Identification at the RNA level: RNA was extracted using RNA extraction kit (RNAprep Pure Polysaccharide Polyphenol Plant Total RNA Extraction Kit (DP441), manufacturer: TIANGEN BIOTECH (BEIJING) CO., LTD.), and then cDNA was obtained using two-step reverse transcription kit (a third-generation premix for two-step de-genomization and reverse transcription, Cat. No.: MR05201). cDNA as a template was added into a 96-well plate, with addition of SYBR®Green I chimeric dye (an antibody dye quantitative PCR premix, Cat. No.: MQ10101) and gene primers for three-step qPCR amplification. Finally, the relative gene expression was calculated based on the Ct value.
Wherein, the sequences of primers were as follows: […]

Assay [2] has as its system Human ovarian cancer cells SKOV3 tumor. Nature of the assay: Ovarian cancer mouse model in vivo, intratumoral injection. On the set-up: species or system nude mice. The following applies: 5 mg/kg intratumoral injection every 2 days, 7 times. On the procedure: Human ovarian cancer cells SKOV3 were cultured. Cells were digested by the trypsin before being used for tumor bearing. Cells were washed twice with PBS, followed by resuspending with PBS to a concentration of 1×10^8/mL. The cell suspension was subcutaneously injected into the axilla of nude mice, with an inoculation dose of 0.2 mL per nude mouse. After inoculation, nude mice were randomly assigned into two groups, which were PBS group and GhJAZ1 protein (5 mg/kg) treated group, respectively, with 8 mice in each group. After tumor inoculation, administration began when the tumor volume reached to about 50-100 mm^3. Administration by intratumoral injection was conducted every 2 days for a cycle of 14 days, in total of 7 times. Throughout the entire experiment, the body weight of nude mice was monitored while administration, and tumor size was measured using a vernier caliper according on the formula V=½×length×width×width, to calculate the tumor volume, and plot tumor growth curve. 14 days later, the tumor was removed, took images and weighted.

c-Myc, sequence (P01106 whole entry): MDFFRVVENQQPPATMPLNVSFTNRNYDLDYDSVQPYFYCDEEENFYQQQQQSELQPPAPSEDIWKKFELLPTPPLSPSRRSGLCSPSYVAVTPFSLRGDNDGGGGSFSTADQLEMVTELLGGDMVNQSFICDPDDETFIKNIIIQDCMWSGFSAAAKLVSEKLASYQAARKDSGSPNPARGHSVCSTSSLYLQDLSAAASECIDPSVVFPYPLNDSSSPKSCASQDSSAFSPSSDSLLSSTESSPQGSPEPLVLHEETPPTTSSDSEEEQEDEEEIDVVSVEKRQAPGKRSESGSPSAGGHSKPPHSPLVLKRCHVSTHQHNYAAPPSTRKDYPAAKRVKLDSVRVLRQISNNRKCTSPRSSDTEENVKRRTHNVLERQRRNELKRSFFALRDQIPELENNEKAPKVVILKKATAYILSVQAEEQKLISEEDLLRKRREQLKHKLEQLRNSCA

B1: GhJAZ1: cotton JAZ1 protein, gene number Gh_A05G0260, sequence SEQ ID No. 4; prokaryotically expressed with His tag, about 30 KD (protein)
chain: MSSCSESTAMKPARSPEKPSFAQTCNLLSQYLKEKGSFGDLSLGMTCNVEANGTPVVPPPTMNLFPLNDKSDDVCGRNGGNPKNLTSMDLFPQQAGLASKDDSPNKLEPQTAPMTIFYGGQVIVFNDFPANKAKEIMLLASNSSSQSNNSFNPIPFTSSIARSPIESSIGVPPTSKPVHPAQRAVPGDLPIARRASLHRFLEKRKDRITAKAPYQINNSAAAPSLSGDNKSWLGLAAQSP
modifications: His tag
notes: prokaryotically expressed with His tag, about 30 KD
Consider B1, for which the “interaction with c-Myc” value in the assay with c-Myc is “interacts”. Moreover, the “fluorescence with GhNINJA after applying luciferase substrate” value with GhNINJA is recorded as “stronger fluorescence”. The “expression of Bcl2 and MCM5” value in assay [1] is listed as “significantly decreased but at a minor extent”. The “expression of P21C, CNB1, CCND1, and CCNE1” value in assay [1] (at a minor extent) is listed as “significantly increased”. Further, the “volume of tumors vs control group” value in assay [2] (SKOV3 in nude mice) is “highly significantly lower”. Besides, the “weight of tumors vs control group” value in assay [2] (tumors removed after 14 days) is “highly significantly lower”.

The values are drawn from patent publication US20240279288A1, “APPLICATION OF PLANT JAZ PROTEINS AND DERIVED POLYPEPTIDES IN PREVENTION AND TREATMENT OF HUMAN AND ANIMAL TUMORS” (ANYANG INSTITUTE OF SINO-COTTON INDUSTRY INNOVATION, priority 2021, published 2024).
